Test results published in article PMC7713262, “Synthesis of high-titer alka(e)nes in Yarrowia lipolytica is enabled by a discovered mechanism” (Nature Communications, 2020).

How the values were obtained:
[1] = substrate: CCCCCCCCCCCCCCCCCC(=O)O; assay: heptadecane formation by GC-FID; Eadie-Hofstee plot; assay type: biochemical, Chlorella variabilis; conditions: blue light, 20 h, 25 °C, 50 mM Tris-HCl pH 8.5, 30 vol% DMSO, lithium salt, kcat unit doubtful (Vmax 2.83 μM/h)
[2] = substrate: CCCCCCCCCCCCCCCCCC(=O)SCCNC(=O)CCNC(=O)[C@H](O)C(C)(C)COP(=O)(O)OP(=O)(O)OC[C@H]1O[C@@H](n2cnc3c(N)ncnc32)[C@H](O)[C@@H]1OP(=O)(O)O; assay: as above; assay type: biochemical, Chlorella variabilis; conditions: blue light, 20 h, 25 °C, 50 mM Tris-HCl pH 8.5, 30 vol% DMSO, lithium salt, kcat unit doubtful (Vmax 3.22 μM/h)

B1: CvFAP (fatty acid photodecarboxylase) (Chlorella variabilis) (protein)
chain: SAVEDIRKVLSDSSSPVAGQKYDYILVGGGTAACVLANRLSADGSKRVLVLEAGPDNTSRDVKIPAAITRLFRSPLDWNLFSELQEQLAERQIYMARGRLLGGSSATNATLYHRGAAGDYDAWGVEGWSSEDVLSWFVQAETNADFGPGAYHGSGGPMRVENPRYTNKQLHTAFFKAAEEVGLTPNSDFNDWSHDHAGYGTFQVMQDKGTRADMYRQYLKPVLGRRNLQVLTGAAVTKVNIDQAAGKAQALGVEFSTDGPTGERLSAELAPGGEVIMCAGAVHTPFLLKHSGVGPSAELKEFGIPVVSNLAGVGQNLQDQPACLTAAPVKEKYDGIAISDHIYNEKGQIRKRAIASYLLGGRGGLTSTGCDRGAFVRTAGQALPDLQVRFVPGMALDPDGVSTYVRFAKFQSQGLKWPSGITMQLIACRPQSTGSVGLKSADPFAPPKLSPGYLTDKDGADLATLRKGIHWARDVARSSALSEYLDGELFPGSGVVSDDQIDEYIRRSIHSSNAITGTCKMGNAGDSSSVVDNQLRVHGVEGLRVVDASVVPKIPGGQTGAPVVMIAERAAALLTGKATIGASAAAPATVAA
notes: codon-optimised gene, C-terminal 6xHis tag (3'-terminus), pET28, E. coli BL21(DE3), Ni-NTA purified
- Km [1]: 108.31 µM
- kcat [1]: 979.62 s⁻¹
- Km [2]: 75.30 µM
